Data from patent US20220332800A1.

Key:
[1] = molecular target: ZIKV-VLP (Native Antigen Inc.) (Zika virus); assay: indirect ELISA, purified antibody serially diluted from 10 µg/ml
[2] = molecular target: purified inactivated Zika virus (PIZV) (Zika virus); assay: as above
[3] = molecular target: ZIKV-VLP (Native Antigen Inc.) (Zika virus); assay: BLI binning on ZIKV-VLP; 1st mAb: 4G2
[4] = molecular target: ZIKV-VLP (Native Antigen Inc.) (Zika virus); assay: BLI binning on ZIKV-VLP; 1st mAb: Ab1
[5] = molecular target: ZIKV-VLP (Native Antigen Inc.) (Zika virus); assay: BLI binning on ZIKV-VLP; 1st mAb: Ab2
[6] = molecular target: ZIKV-VLP (Native Antigen Inc.) (Zika virus); assay: BLI binning on ZIKV-VLP; 1st mAb: C10
[7] = molecular target: ZIKV-VLP (Native Antigen Inc.) (Zika virus); assay: BLI binning on ZIKV-VLP; 1st mAb: 11-3
[8] = molecular target: ZIKV-VLP (Native Antigen Inc.) (Zika virus); assay: BLI binning on ZIKV-VLP; 1st mAb: 78-2
[9] = molecular target: ZIKV-VLP (Native Antigen Inc.) (Zika virus); assay: BLI binning on ZIKV-VLP; 1st mAb: 102-1
[10] = molecular target: ZIKV-VLP (Native Antigen Inc.) (Zika virus); assay: BLI binning on ZIKV-VLP; 1st mAb: 181-4
[11] = molecular target: ZIKV-VLP (Native Antigen Inc.) (Zika virus); assay: BLI binning on ZIKV-VLP; 1st mAb: 242-3
[12] = molecular target: ZIKV-VLP (Native Antigen Inc.) (Zika virus); assay: BLI binning on ZIKV-VLP; 1st mAb: 260-2
[13] = molecular target: ZIKV-VLP (Native Antigen Inc.) (Zika virus); assay: BLI binning on ZIKV-VLP; 1st mAb: 289-3
[14] = molecular target: ZIKV-VLP (Native Antigen Inc.) (Zika virus); assay: BLI binning on ZIKV-VLP; 1st mAb: 306-2
[15] = molecular target: ZIKV-VLP (Native Antigen Inc.) (Zika virus); assay: BLI binning on ZIKV-VLP; 1st mAb: 329-2
[16] = molecular target: ZIKV-VLP (Native Antigen Inc.) (Zika virus); assay: BLI binning on ZIKV-VLP; 1st mAb: 270-12
[17] = molecular target: Zika PRVABC59 live virus (Zika virus); assay: cell-based or functional assay
[18] = molecular target: ZIKV-VLP (Native Antigen Inc.) (Zika virus); assay: BLI binning on ZIKV-VLP; 1st mAb (row): C10
[19] = molecular target: ZIKV-VLP (Native Antigen Inc.) (Zika virus); assay: BLI binning on ZIKV-VLP; 1st mAb (row): 102-1
[20] = molecular target: ZIKV-VLP (Native Antigen Inc.) (Zika virus); assay: BLI binning on ZIKV-VLP; 1st mAb (row): 242-3
[21] = molecular target: ZIKV-VLP (Native Antigen Inc.) (Zika virus); assay: BLI binning on ZIKV-VLP; 1st mAb (row): 289-3
[22] = molecular target: ZIKV-VLP (Native Antigen Inc.) (Zika virus); assay: BLI binning on ZIKV-VLP; 1st mAb (row): 306-2
[23] = molecular target: ZIKV-VLP (Native Antigen Inc.) (Zika virus); assay: BLI binning on ZIKV-VLP; 1st mAb (row): 270-12

| Substance | EC50 (half-maximal binding concentration) [1] | response of 2nd mAb [3] | response of 2nd mAb [4] | response of 2nd mAb [5] | response of 2nd mAb [6] | response of 2nd mAb [7] | response of 2nd mAb [8] | response of 2nd mAb [9] | response of 2nd mAb [10] | response of 2nd mAb [11] | response of 2nd mAb [12] | response of 2nd mAb [13] | response of 2nd mAb [14] | response of 2nd mAb [15] | response of 2nd mAb [16] | other results |
| --- | --- | --- | --- | --- | --- | --- | --- | --- | --- | --- | --- | --- | --- | --- | --- | --- |
| 4G2 (commercially-available anti-dengue antibody) | 0.33 µg/mL | 0.62 | 0.52 | -0.08 | 0.54 | 0.52 | 0.17 | 0.46 | 0.5 | 0.52 | 0.54 | 0.51 | 0.43 | 0.51 | 0.43 | EC50 [2]: 0.0182 µg/mL |
| C10 (commercially-available anti-dengue antibody) | 0.162 µg/mL | 0.24 | 0.66 | 0.05 | 0.17 | 0.63 | 0.56 | 0.68 | 0.55 | 0.59 | 0.61 | 0.63 | 0.62 | 0.57 | 0.58 | MNT IC50 (ng/mL) of Purified antibody [17]: 306 ng/mL; response of 2nd mAb [18]: -0.0123; response of 2nd mAb [19]: -0.0138; response of 2nd mAb [20]: -0.0078; response of 2nd mAb [21]: -0.0388; response of 2nd mAb [22]: 0.0209; response of 2nd mAb [23]: -0.0081; EC50 (half-maximal binding concentration) [2]: 0.0268 µg/mL |
